The target of the test is γ-tubulin of pig brain γ-tubulin complexes (pig (endogenous in brain)). Description: quantitative immunoblot of the purified complexes. A general note: A western blot detects proteins with antibodies after separation by electrophoresis.

Regarding “76p of pig brain γ-tubulin complexes (76-kD polypeptide, pig orthologue of h76p = hGCP4) (natural protein)”, the abundance of 76p against γ-tubulin in the purified complexes worked out at 5 fold.
